test: soluble on expression in E. coli; label from the status in PepcDB or PDB records

| Sequence | soluble on expression in E. coli |
| --- | --- |
| MGMLDVSLHKITQKSQSLLHRTADRHLRLAVTGLSGAGKTAFITGLVNQLLNSGAVSTVSHSRQNGLPLWQVSREQRLLGVKRAMQPDLEIASFDYQGAMLALTSNPPTWPESTRTISELRLAIKYRPEKGLLAKFADAATLYLDIVDYPGEWLLDLPMLRQSYIEWCTTQQQRIAVLKSSPLYAGFETSLNALNLAAMADESELKRLADQYQQLLHDLVHVQGYYQAQPGRMLLPGEWQGAPLLAFFPLLSVTNAQWSNLKQSDKHSAFHVLEKRYQEYVAKVVKPFYKQHFAGFDRQVVLVDCFSALNRGKSQFEDMGAALNAIMESFQYGQSSYLRRLFAPRIDRLLFAASKVDHVTRDQQSHVLSLLTDMLKHSQHFAGFEGCKVETMAISAIKATRHGMVTTQEGDVEVVQGTGLNGQALTLFPGEVPTRLPEPDFWREQGFNFIGFAPPDNTNVDPSSVHFDHIRLDHLLQYLVGDKLE | not soluble |
| MNQLKGIHHVTAITSSAEKNYEFFTHVLGMRLVKKTVNQDDIQTYHLFFADDKGSAGTDMTFFDFPGVPKGVHGTNEISKTSFRVPTDAALAYWVKRFDRLEVEHTGIKEQFGKKTLSFVDFDDQHYQLISDELDKGIESGTPWQNGPVPLEYAITGLGPVFIRIANFSFFKEVLEKVLLFKEIAQEGEFYLFEVNKGGNGASVIVEHNTVLPEAQQGFGTVHHAAFRVEDRAVLEEWIERISSVGLPSSGYVNRHFFESLYARVAPQILFEFATDGPGFMGDESYETLGEKLSLPPFLEPKREEIEKLVRPIDTVRSTKEFIKE | not soluble |
| MRERVCVSHCVLQRTVVCRPRTFVRERIRTQFKLVSLFITMPKSLRKRFVLVSIDDNIEQINAARKLRRYLTNNHLNHIFSSTPEEMKEYLDKLDSGTFNFRETAEEQKSVDPFSEANQPAIQMSSNQEILEKWARGTFAENSDALKLLLEPTNIEEDAVLDDHESENIVNNIPQLFMVNSMDAETPNDSIIVENGKEDQLDMAYCSLCKHEVETGRNRNTKIRKQTEHVLDAHPESEFLNVDIAKRYECVHCLRTLPVSKSPCEHISEHHDKTHVEIEFRDLWSNEQVSTFNSVMEKCFLRHLPVPRSRRIRNGNTWYLSEKASYRIVRGGEIIHISTVADKSKTDNGKESKQSRLDNSERGKPTRSMDSDYDIFDNQDETDSEEGARSESIDTGNKVSESEPGSLQSVIDLE | not soluble |
| LPSGIIIKGIGGFYYVKTENGIYECKARGVFRKDSKIPLPGDEVVISVIDEEKKKGYIEEICERKIQLIRPAVANINQIALVVSVKSPLPDFVLLDKLLITVMQKELNAIICINKIDLDEGYKDVIIDCYKGTGVETVCVSSVLNVGFEQLAKMLEGKTTVFAGQSGVGKSTILNKILDSYVMETGEISDKIERGRHTTRHAELLELKSGGFVVDTPGFSSFELSEIEPKELQNYYPEFRDYIGKCRFAGCSHISEPGCMVKSALENGMINKDRYGRYIIFYNMLKDKQRRKYS | not soluble |
| LHRILKVVFPKRKIVLWVIGGDLHLEVEKGRYRVDVLKSLQYLLVEGQAMKDALCGQGVENVKVMPNFKDISLFSPLHCHTPYTPSKVLRLVFFSRIMPDKGCDLILDLAHKLNERGYKDKFVIDFYGPIAPDYSKRFSSILDTLPNVHYQGTLD | not soluble |
| MAVLAALLRSGARSRSPLLRRLVQEIRYVERSYVSKPTLKEVVIVSATRTPIGSFLGSLSLLPATKLGSIAIQGAIEKAGIPKEEVKEAYMGNVLQGGEGQAPTRQAVLGAGCDGGRWDGEHVHVPYVMNRGSTPYGGVKLEDLIVKDGLTDVYNKIHMGSCAENTAKKLNIARNEQDAYAINSYTRSKAAWEAGKFGNEVIPVTVTVKGQPDVVVKEDEEYKRVDFSKVPKLKTVFQKENGTVTAANASTLNDGAAALVLMTADAAKRLNVTPLARIVGKARRGGSHL | not soluble |
| ANTAFVSSACNTQKIPSGSPFNRNLRAMLADLRQNTAFSGYDYKTSRAGSGGAPTAYGRATCKQSISQSDCTACLSNLVNRIFSICNNAIGARVQLVDCFIQYEQRSF | soluble |
| MGSDKIHHHHHHMSEIKNRIDFVYIFDVQDGNPNGDPDAGNLPRVDAETGMGLVTDVCLKRKVRNYVQVAKGLEDGYDIFIKEKAVLNTLIDKAHDDSEVKNAKDKTDAARRFMCKNYFDVRTFGAVMSTGKNAGQVRGPIQFTFARSVDPIAAAEHSITRMAVATDAEAKKQSGDNRTMGRKATVPYGLYICHGFISANLAQQTGFSEEDLALFWEALKNMFDMDRSAARGLMSAQKLIVFKHDSVLGNAPANKLFDLVKVEKVCDGAPRSFGDYHVTIDKEHVPSNVTVEELI | not soluble |
| MKTYRIRKPKIVVVGGGTGLPVILKSLRNQSVDITAVVTVADDGGSSGELRSSINNMTPPGDLRNVLVALSDMPQLYEDIFQYRFDKSDSHFANHAIGNLIIAAVSEMRGSTYEAIQLLSKMMHVDGRIYPSSERPLTLHAVFKDGSVAVGESKIALDRKTIDHVFVTNTHGEEQPRAARKVVKAIEEADMVVLGPGSLFTSILPNLVITEIGEAIKQTAAEVVYICNIMTQKGETEHFTDADHVRVLNEHLQAQFVDTVLVNTEKVPENYMDPEIYDEYLVQVKHDFQGLREEGCRVISTDFLELRDGGVFHDGEKVVEELFRIVFGTKYLEHHHHHH | soluble |
| MTIAYEHPNALTYLKSMKENIIRFANKKSLYTQHDEYIKNVFMDERVNLKYHCESIVSYIAEAFIHYSVWDHSHAYYPGRPSQQTARTDALEGTSRTLPTLAAWLHANGRSNTIITGLNQQPILVPEILRKAFLAGTNPQHKGYWGTLHHCDQRVCEGADLALALWMSKEWVWDCFSIDEKCQIITWFKQVNQCETVDNNWHLFVLTVQIVLKALTGEDEVQYDKYERVKEFYVGDGWFRDGAKGNYDYYNAWAFHYSLYWFTQIDVDFDSTFINNALSDFVGNYRYFFGKEGFPFFGRSACYRLAAAAPLLAAVDLQSDKITIGEAKRAFHCNLKYFISNGALKAGLPTQGLFDEDVRLVDNYSGPASSLWSLRALNIALFCGEKINLWQAEEAPLAIEQGNFELDISAINMKILGVYETQEVIAIFKNEYTQDQSPLSRRLLAPSLEHHHHHH | soluble |
| MGKRVLIVDDATNGREAVEKYKELKPDIVTMDITMPEMNGIDAIKEIMKIDPNAKIIVCSAMGQQAMVIEAIKAGAKDFIVNTAAVENPSLITQIAQTFGSQAVVVAIDAKRVDGEFMVFTYSGKKNTGILLRDWVVEVEKRGAGEILLTSIDRDGTKSGYDTEMIRFVRPLTTLPIIASGGAGKMEHFLEAFLAGADAALAASVFHFREIDVRELKEYLKKHGVNVRLEGLLEHHH | soluble |
| GPGSMTYRYDYRPPNGGVEGSTVLFEPVAREHRATFSCGGGYGRNVMPEIPRPMVLPLVDYLDSFDKRFIEDWDEITTVQMVKLATLLNYEELLNLASAKLAVYLSEKSIEGLRAFLGVENDFKAEEEAELRKEYGRMSEEK | soluble |
| MSLHSVAEREKRNAVHDSLTGLPNRKYCFELIDDRIQSGDPFSVILFDVVNFKQVNDAMGHFCGDQLLIQIGQRLQDKLKGSDKIFRVGGDEFVILTSSACEKTGTELIESLDCALSARFHLDEFQVSSRVVFGISTYPYDAISNDLLIKHADIAMYHAKRNGNLFAFYHDDMNVGAKYQLEISSRIQCALEKEEFQLYYQPLIDANTNLAVGFEAVIRWHDENGKTISPNDFIPIAERSNQVHNITMWVLGQVEKDLKTFIEKGIKLPVHVNLSAKDLSSNLLFHRLEKLLENNPQFADLISLEITETMAIDRVVELNPLIHQIKGLGIKISLDDFGTGYSSLSLLRDLPVDQIKIDRSFLCTANRTEGSRSIVENTIALAHGLGYSVVAEGVQDMDTLYFLRSRGCDIIQGYLFCPALPLNEVINWVNEHDDKQSHTRRAEGHHHHHH | soluble |
| ATRRRSLSCYVWIATFGMRYTHEFNKVIRDYVRGHASQIRKRLLPKALEVFASHRIAGDCVVVATGAPPELVREILALVADQQEVVPVIGSSIVPRLGAIIVARHCHHEEKMRMLREQGYGDVAVAYSDSTADLPLLMAAKVPVVVNPKPKREKLFRRVLQP | not soluble |
| MKKIMTIFGTRPEAIKMAPLVKALEQEKMLEPIVVVTAQHREMLDSVLSTFEIKPKYDLNIMKSGQTLSEITSKSITQLEQVIQLEKPDMVLVHGDTMTTFAGGLAAFYNQVPIGHVEAGLRSYDKYSPFPEEVNRQLVGVLADLHFAPTKNAASHLLSEGKYSESVVVTGNTAIDAMKYTVDDNYKSNIMDKYHDKKFILMTAHRRENIGKPMENIFKAVRRLIDEYTDLALVYPMHKNPKVREVAQKILGSHDRIELIEPLDVVDFHNFAKKSYFILTDSGGIQEEAPSFNKPVLVLRSVTERPEGVEAGTLKVIGTNKQNVYQAAKELIDDERLYHQMSEASNPYGDGFASERIVNHIKYYLNLITEKPSDF | not soluble |
| MAHHHHHHMCVSELRRLRGHGRNVYIIYDVAKGGTPPPRHFAPTSGWGMIVVPSPNVANYDEWAKQLQAARVIVNCPDEVDVKAICTWMKQGQDPGKQAEYWRIVEERMKRVGPILRYIFDGESYIDPLGAVNDALLAMKPSDVGEYFTLGGEKTWCSEDPCHKLVKIVRARTDEGAEVFLNASISADIGFRTADRLKKEMCARDLLLLILRSHGALASQALEKFGLRAFMYGEPVSALVKGLNELRSPERDEAQDSVLKVNHQGHPTRAVGLA | soluble |
| MGSDKIHHHHHHMRFPEFSGEWKKYFIRDIAEVTKGAGISKEQRSLFGTPCILYGELYTTYKSEVINDVQSKTDIDAKNLVRSKENDVIIPSSGETAIDISTARCVPYDDVLLGGDLNIIRLYQNDGRFLSYQLNGVRKLDIARVAQGSSVIHLYGESIKSLSVSLPALKEQQKIVSLLSLIDERIATQNKIIEEYKKLKNALAELFFAKSIEYTSIGEMCDVVMGQSPSSVAYNYTKNGLPLIQGNLDIFEGVTSPRMWTSDITKQCDIGDIILTVRAPVGDVAKSNMIACVGRGVCAIKVKESGCSEYVYQYLLYFKAKWGSIEQGSTFSAISRNDILNINIPVITKRLIVASHLLALFDSEISIEALNLNVYTKQKQYLLTKMFI | not soluble |
| MVLTLDLADPAQPEHVFIVEDSRGATELKLYKSHYTIGKADSCDIRLHSIYASRQHATLVRFLTENGEVRYRLIDGDPETSRRSANGTYVNNRSITECDLKHYDQILFGALEHHHHHH | not soluble |
| MGSDKIHHHHHHRNGKTYTQPLTGQATDKIGEQIRELFNIDINPNGPAVKANNYVSTYMKRLYKQLENYEHGENHNEEEVNAWLSADRIVSHMAQEVSHRLDDGSYSIRFAKEHVPAKEGQSIVRAQLRIHIQGIVSPVFFYIEDTNLPGDTVLVSSDDPTVVTDVTTMVDRWSHLQLSTLPIVTARASTNDELKIEAFLVIALKDEDAGPPKKRSR | not soluble |
| SPEIMKNLSNNFGKAMDQCKDELSLPDSVVADLYNFWKDDYVMTDRLAGCAINCLATKLDVVDPDGNLHHGNAKDFAMKHGADETMAQQLVDIIHGCEKSAPPNDDKCMKTIDVAMCFKKEIHKLNWVPNMDLVIGEVLAEV | soluble |
